Patent US20150011462A1 (Novo Nordisk, published 2015)
Numbered stars: 1 amine (or outer) side, 2 acyl side, 3 side chain; on linkers, the order of the positions; unused ones are H or OH. Square brackets hold non-standard residues; d marks the D form. Side chains are listed from the residue outwards. Ends that are not written are not given here. * marks the point of attachment. TtdSuc = 4-[3-[2-[2-(3-aminopropoxy)ethoxy]ethoxy]propylamino]-4-oxobutanoyl; C22 diacid = O=C(O)CCCCCCCCCCCCCCCCCCCCC(=O)*; C20 diacid = O=C(O)CCCCCCCCCCCCCCCCCCC(=O)*; C19 diacid = O=C(O)CCCCCCCCCCCCCCCCCC(=O)*; γGlu = O=C(O)[C@H](CCC(=O)[*:2])N[*:1]; εLys = N[C@@H](CCCCN[*:1])C(=O)[*:2]; Trx = NC[C@H]1CC[C@H](C(=O)O)CC1; AEEA = NCCOCCOCC(=O)O; Aib = CC(C)(N)C(=O)O; Inp = O=C(O)C1CCNCC1

Experiments:
[1] = target: T1, human GLP-1 receptor (human, UniProt P43220 24-463); assay: competitive binding (SPA): displacement of 125I-GLP-1(7-36)NH2 from BHK cell membranes with human GLP-1 receptor; high HSA (2.0% final)
T1 construct: whole, on cells
Procedure: (§1) For the receptor binding assay in the presence of low HSA (0.005%) 50 μl of the assay buffer was added to each well of an assay plate. […] For the receptor binding assay in the presence of high HSA (2%) 50 μl of the 8% albumin stock was added to each well of an assay plate. […] Cell membrane aliquots were thawed and diluted to their working concentration. Fifty μl were added to each well in the assay plate. […] WGA SPA beads were suspended in assay buffer at 20 mg/ml. The suspension was diluted to 10 mg/ml in assay buffer just prior to addition to the assay plate. Fifty μl were added to each well in the assay plate. […] A 25 μl aliquot was reserved for measuring total counts/well. […] The assay plate was incubated for 2 h at 30° C. […] The assay plate was centrifuged for 10 min. […] The assay plate was read in a Packard TopCount NXT instrument.

[2] = target: T1, human GLP-1 receptor; assay: competitive binding (SPA): displacement of 125I-GLP-1(7-36)NH2 from BHK cell membranes with human GLP-1 receptor; low HSA (max. 0.001% final)
Procedure: as §1

[3] = target: T1, human GLP-1 receptor; assay: cell-based or functional assay

Binder | IC50 [1] [nM] | IC50 [2] [nM] | EC50 (pM), in vitro potency, CRE luciferase reporter gene assay in BHK cells expressing the human GLP-1 receptor [3] [pM]
H[Aib]EGTFTSDVSSYLEEQAAREFIAWLVRGRGK([AEEA-AEEA-AEEA-AEEA-AEEA-AEEA-εLys-εLys-C20 diacid])GGSK([AEEA-AEEA-AEEA-AEEA-AEEA-AEEA-εLys-εLys-C20 diacid]) (Double-acylated, C-terminally extended GLP-1 analogue made by SPPS; also called 28) | 30 | 0.05 | 3.4
H[Aib]EGTFTSDVSSYLEEQAAREFIAWLVRGRGK([AEEA-AEEA-γGlu-Trx-C22 diacid])GGSK([AEEA-AEEA-γGlu-Trx-C22 diacid]) (Double-acylated, C-terminally extended GLP-1 analogue made by SPPS) | 21 | 1.6 | 101
H[Aib]EGTFTSDVSSYLEEQAAREFIAWLVRGRGK([AEEA-AEEA-AEEA-AEEA-AEEA-AEEA-γGlu-Trx-C20 diacid])GGSK([AEEA-AEEA-AEEA-AEEA-AEEA-AEEA-γGlu-Trx-C20 diacid]) (Double-acylated, C-terminally extended GLP-1 analogue made by SPPS; also called 24) | 84 | 0.67 | 7
H[Aib]EGTFTSDVSSYLEEQAAREFIAWLVRGK([AEEA-AEEA-γGlu-Trx-C20 diacid])GAESPK([AEEA-AEEA-γGlu-Trx-C20 diacid]) (Double-acylated, C-terminally extended GLP-1 analogue made by SPPS; also called 14) | 530 | 1.5 | 22
H[Aib]EGTFTSDVSSYLEEQAAREFIAWLVRGK([AEEA-AEEA-γGlu-Trx-C20 diacid])GPASEK([AEEA-AEEA-γGlu-Trx-C20 diacid]) (Double-acylated, C-terminally extended GLP-1 analogue made by SPPS; also called 15) | 928 | 1.6 | 20
H[Aib]EGTFTSDVSSYLEEQAAREFIAWLVRGRGK([TtdSuc-γGlu-Inp-C20 diacid])GGSK([TtdSuc-γGlu-Inp-C20 diacid]) (Double-acylated, C-terminally extended GLP-1 analogue made by SPPS; also called 21) | 177 | 1.3 | 19
H[Aib]EGTFTSDVSSYLEEQAAREFIAWLVRGRGK([AEEA-AEEA-AEEA-AEEA-γGlu-C20 diacid])GGSK([AEEA-AEEA-AEEA-AEEA-γGlu-C20 diacid]) (Double-acylated, C-terminally extended GLP-1 analogue made by SPPS; also called 19) | 142 | 2.4 | 6.2
H[Aib]EGTFTSDVSSYLEEQAAREFIAWLVRGRGK([AEEA-AEEA-γGlu-Trx-C19 diacid])GGSK([AEEA-AEEA-γGlu-Trx-C19 diacid]) (Double-acylated, C-terminally extended GLP-1 analogue made by SPPS; also called 26) | 202 | 0.88 | 13
